In assay [1] the target is T1, HCV E2 ectodomain (eE2), full length, residues 384-656, genotype J6 (HCV genotype J6, N-linked glycans (fully glycosylated)). Briefly: ITC. On the technique in general: Isothermal titration calorimetry measures the heat released or taken up as one component is titrated into another.
The target of assay [2] is T1, HCV E2 ectodomain (eE2), full length, …. Kind of assay: ITC. The source holds these as a separate data set.

Like-named read-outs stand apart in the source and are kept apart here.

The values that follow come from paper PMC8542614 (Nature, 2021).

B1: tamarin CD81 large extracellular loop (tCD81-LEL), residues 112-202, with plasmid-encoded N-terminal residues (domain or fragment)
chain: GFVNKDQIAKDVKQFYDQALQQAVVDDDANNAKAVVKTFHETLNCCGSSTLSALTTSMLKNNLCPSGSSIISNLFKEDCHQKIDELFSGKL
Turning to B1, in assay [1], the Kd (in general, a measure of binding affinity in units of concentration) worked out at 37 nM; the dH is -12.3 kcal/mol; the stoichiometry N (usually the number of molecules, sites or subunits per partner or assembly) stood at 0.57. In assay [2], the affinity, expressed as Kd, was 175 nM; the dH was -8.52 kcal/mol; the “stoichiometry N” value is 0.67.
